From patent US20200157212A1 (Pfizer, published 2020)

T1: Terbium (Tb) labeled-SNAP tagged ROBO2 expressed on HEK293 cells (Homo sapiens (Human), UniProt Q9HCK4 22-1378, terbium label on the SNAP tag)
T1 construct: also called Tb-labeled ROBO2 cells; ROBO2 expressing cells; not shown: SNAP tag
T1 sequence: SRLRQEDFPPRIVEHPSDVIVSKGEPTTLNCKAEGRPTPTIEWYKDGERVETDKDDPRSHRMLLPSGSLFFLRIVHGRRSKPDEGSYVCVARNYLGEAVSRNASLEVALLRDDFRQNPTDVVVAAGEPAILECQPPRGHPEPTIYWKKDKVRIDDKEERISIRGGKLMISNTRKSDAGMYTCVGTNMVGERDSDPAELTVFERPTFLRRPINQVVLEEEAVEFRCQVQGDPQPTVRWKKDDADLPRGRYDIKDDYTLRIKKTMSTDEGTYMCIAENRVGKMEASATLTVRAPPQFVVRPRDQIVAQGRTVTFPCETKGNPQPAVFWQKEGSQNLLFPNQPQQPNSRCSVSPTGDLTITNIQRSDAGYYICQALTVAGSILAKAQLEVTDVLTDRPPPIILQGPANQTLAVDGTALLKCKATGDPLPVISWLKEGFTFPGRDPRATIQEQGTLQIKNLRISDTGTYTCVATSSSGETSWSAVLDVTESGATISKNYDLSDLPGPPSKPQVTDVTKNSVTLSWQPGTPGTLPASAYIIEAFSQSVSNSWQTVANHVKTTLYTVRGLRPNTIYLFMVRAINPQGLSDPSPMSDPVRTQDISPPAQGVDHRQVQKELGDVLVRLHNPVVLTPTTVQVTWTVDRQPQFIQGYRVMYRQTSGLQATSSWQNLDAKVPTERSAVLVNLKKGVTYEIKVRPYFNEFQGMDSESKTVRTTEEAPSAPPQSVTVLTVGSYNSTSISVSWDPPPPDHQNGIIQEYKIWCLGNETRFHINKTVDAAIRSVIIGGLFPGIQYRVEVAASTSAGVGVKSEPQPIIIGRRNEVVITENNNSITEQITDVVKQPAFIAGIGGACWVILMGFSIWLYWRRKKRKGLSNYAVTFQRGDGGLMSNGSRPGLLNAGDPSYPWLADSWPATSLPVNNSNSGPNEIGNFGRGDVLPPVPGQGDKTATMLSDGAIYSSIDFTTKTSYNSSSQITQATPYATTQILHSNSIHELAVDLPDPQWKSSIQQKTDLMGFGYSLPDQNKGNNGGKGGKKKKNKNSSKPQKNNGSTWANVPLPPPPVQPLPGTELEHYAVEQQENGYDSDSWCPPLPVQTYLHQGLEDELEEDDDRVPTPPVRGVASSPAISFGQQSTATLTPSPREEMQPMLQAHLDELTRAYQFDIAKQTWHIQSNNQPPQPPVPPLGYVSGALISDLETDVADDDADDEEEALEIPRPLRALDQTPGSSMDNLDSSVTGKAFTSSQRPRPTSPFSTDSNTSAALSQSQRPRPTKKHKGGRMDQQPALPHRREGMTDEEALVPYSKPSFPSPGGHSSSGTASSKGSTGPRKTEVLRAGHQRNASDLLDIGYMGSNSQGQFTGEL

T2: Human ROBO2 Ig1-Ig2-His (human, UniProt Q9HCK4 31-220)
T2 construct: the His tag is named only in the SPR paragraphs; the Octet and ELISA paragraphs print 'ROBO2 Ig1-Ig2' without a tag; also called ROBO2 Ig1-2; Human ROBO2 Ig 1,2
T2 sequence: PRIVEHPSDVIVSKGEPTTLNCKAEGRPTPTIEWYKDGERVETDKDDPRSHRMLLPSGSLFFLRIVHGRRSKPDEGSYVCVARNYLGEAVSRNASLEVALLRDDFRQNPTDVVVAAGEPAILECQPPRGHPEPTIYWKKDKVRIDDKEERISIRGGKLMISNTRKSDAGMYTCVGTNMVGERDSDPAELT

T3: Human ROBO2 overexpressed on HEK293 cells (human, UniProt Q9HCK4 22-1378)
T3 construct: also called ROBO2 cells; native ROBO2
T3 sequence: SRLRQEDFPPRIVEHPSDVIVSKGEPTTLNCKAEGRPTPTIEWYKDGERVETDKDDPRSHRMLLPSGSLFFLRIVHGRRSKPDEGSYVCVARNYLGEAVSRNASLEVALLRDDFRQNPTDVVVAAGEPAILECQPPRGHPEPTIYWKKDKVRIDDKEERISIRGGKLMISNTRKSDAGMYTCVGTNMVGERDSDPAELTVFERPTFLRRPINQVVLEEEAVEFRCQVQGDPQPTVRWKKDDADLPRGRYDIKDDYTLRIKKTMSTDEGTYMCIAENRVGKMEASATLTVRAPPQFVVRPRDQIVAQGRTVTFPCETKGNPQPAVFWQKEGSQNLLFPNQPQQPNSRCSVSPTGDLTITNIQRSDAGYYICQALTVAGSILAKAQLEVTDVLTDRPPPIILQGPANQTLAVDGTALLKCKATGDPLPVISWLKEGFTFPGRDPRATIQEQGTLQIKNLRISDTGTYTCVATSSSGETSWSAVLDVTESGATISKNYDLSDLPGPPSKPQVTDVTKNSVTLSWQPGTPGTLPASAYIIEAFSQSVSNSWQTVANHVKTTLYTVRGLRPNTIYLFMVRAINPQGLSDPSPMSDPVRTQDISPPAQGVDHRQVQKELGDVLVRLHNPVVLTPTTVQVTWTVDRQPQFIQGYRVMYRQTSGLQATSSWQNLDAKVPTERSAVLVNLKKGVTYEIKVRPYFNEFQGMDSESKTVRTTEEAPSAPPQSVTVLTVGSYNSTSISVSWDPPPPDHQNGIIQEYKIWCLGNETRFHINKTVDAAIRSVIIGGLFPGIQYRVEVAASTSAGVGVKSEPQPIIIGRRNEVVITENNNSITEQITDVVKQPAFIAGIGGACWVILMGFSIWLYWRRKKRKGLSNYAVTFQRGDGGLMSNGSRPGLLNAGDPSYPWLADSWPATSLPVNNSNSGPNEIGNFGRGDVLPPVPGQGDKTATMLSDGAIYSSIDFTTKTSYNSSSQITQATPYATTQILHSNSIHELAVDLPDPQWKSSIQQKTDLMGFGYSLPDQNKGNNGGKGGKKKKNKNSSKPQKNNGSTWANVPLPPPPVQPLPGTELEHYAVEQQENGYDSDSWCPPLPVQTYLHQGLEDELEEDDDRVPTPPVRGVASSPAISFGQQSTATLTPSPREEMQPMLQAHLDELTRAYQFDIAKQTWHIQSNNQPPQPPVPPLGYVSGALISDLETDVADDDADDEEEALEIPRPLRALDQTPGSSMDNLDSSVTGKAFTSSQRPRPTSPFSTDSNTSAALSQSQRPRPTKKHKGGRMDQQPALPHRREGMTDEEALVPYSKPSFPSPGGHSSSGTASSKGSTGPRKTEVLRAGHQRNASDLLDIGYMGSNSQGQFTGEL


Key:
[1] = molecular target: T1, Terbium (Tb) labeled-SNAP tagged ROBO2 …; experiment: HTRF, 5 nM d2-SLIT2-N on Tb-SNAP-ROBO2 HEK293 cells, no antibody (maximal signal)
Description: In this assay, terbium (Tb) labeled-SNAP tagged ROBO2 expressing HEK293 cells were incubated with 5 nM d2-labeled SLIT-2N in the presence of 1 nM anti-ROBO2 antibodies for 1 hour. After incubation, fluorescence at 665 nm and 620 nm was measured on an Envision multilabel plate reader. […] Maximal signal was defined as the HTRF ratio of Tb-labeled ROBO2 cells with d2-labeled SLIT2-N in the absence of antibody, the minimum signal was defined as the HTRF ratio of Tb-labeled ROBO2 expressing HEK293 cells only. One nanomolar (nM) parental antibody, 93H2, was unable to block the HTRF assay, therefore this concentration was selected to identify clones with a higher affinity than 93H2 (Table 2, HTRF Ratio column). […] Antibodies derived from chain (Abcs series) or CDR shuffling (CTIR-2 series) were evaluated in 11-point, 5-fold dilution series with a top concentration of 1500 nM (Table 2 HTRF IC₅₀).
(§1) HTRF assays were run with 5 nM d2-labeled SLIT2-N and antibodies were added at 1 nM. […] Antibodies derived from chain (Abcs series) or CDR shuffling (CTIR-2 series) were evaluated in 11-point, 5-fold dilution series with a top concentration of 1500 nM, N.T. = not tested; ^cFold selectivity was calculated as Geometric Mean Fluorescent Intensity (Geo MFI) of ROBO2/Geo MFI of ROBO1 binding.

[2] = molecular target: T2, Human ROBO2 Ig1-Ig2-His; experiment: Octet (BLI), relative Kd
[3] = molecular target: T1, Terbium (Tb) labeled-SNAP tagged ROBO2 …; experiment: HTRF competition, competitor d2-SLIT2-N, ROBO2 HEK293 cells
In short: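 HEK293 cells expressing Tb-labeled SNAP-ROBO2 were incubated 1 hour with 5 nM d2-SLIT2-N plus antibody, read as the 665/620 nm HTRF ratio. Controls were no antibody (maximal) and cells alone (minimal). Screening used 1 nM antibody; IC₅₀ came from 11-point, 5-fold dilutions starting at 1500 nM.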

[4] = molecular target: T3, Human ROBO2 overexpressed on HEK293 …; experiment: flow cytometry, Geo MFI ROBO2/ROBO1 HEK293 cells, 0.1 µg/ml
Description: Binding of the antibodies was detected using a secondary fluorochrome conjugated anti-human IgG F(ab′)₂ antibody and samples were analyzed on a Fortessa cytometer (BD Biosciences). The fold ROBO2 selectivity was calculated as the geometric mean fluorescence intensity (Geo MFI) with ROBO2 cells/Geo MFI with ROBO1 cells. A fold change higher than 3 was considered to be ROBO2 specific (Table 2, Fold Selectivity). Some affinity matured clones had increased ROBO1 reactivity, for example Abcs 55, CTI-R2-10 and CTIR2-13.
as §1, with “binding. […] Outcomes: results are listed in order of assays listed in the table (left to right), I.A. = Improved Affinity” for “binding.”

[5] = molecular target: T1, Terbium (Tb) labeled-SNAP tagged ROBO2 …; experiment: HTRF, 5 nM d2-SLIT2-N on Tb-SNAP-ROBO2 HEK293 cells, 1 nM antibody
In short: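 Tb-SNAP-ROBO2 HEK293 cells incubated 1 hour with 5 nM d2-SLIT2-N, with 1 nM anti-ROBO2 antibody or none (maximal signal); cells alone gave minimum. HTRF read at 665/620 nm; IC50 series used 11-point, 5-fold dilutions from 1500 nM.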

Row | HTRF Ratio [1] | Kd [2] | IC50 [3] | Fold Selectivity for ROBO2/ROBO1 [4] | HTRF Ratio [5] | Binder
1 | 11900 | – | – | – | – | SLIT2-N (ligand, d2 label in the HTRF assay, also called d2-labeled SLIT2-N) QCSCSGSTVDCHGLALRSVPRNIPRNTERLDLNGNNITRITKTDFAGLRHLRVLQLMENKISTIERGAFQDLKELERLRLNRNHLQLFPELLFLGTAKLYRLDLSENQIQAIPRKAFRGAVDIKNLQLDYNQISCIEDGAFRALRDLEVLTLNNNNITRLSVASFNHMPKLRTFRLHSNNLYCDCHLAWLSDWLRQRPRVGLYTQCMGPSHLRGHNVAEVQKREFVCSGHQSFMAPSCSVLHCPAACTCSNNIVDCRGKGLTEIPTNLPETITEIRLEQNTIKVIPPGAFSPYKKLRRIDLSNNQISELAPDAFQGLRSLNSLVLYGNKITELPKSLFEGLFSLQLLLLNANKINCLRVDAFQDLHNLNLLSLYDNKLQTIAKGTFSPLRAIQTMHLAQNPFICDCHLKWLADYLHTNPIETSGARCTSPRRLANKRIGQIKSKKFRCSAKEQYFIPGTEDYRSKLSGDCFADLACPEKCRCEGTTVDCSNQKLNKIPEHIPQYTAELRLNNNEFTVLEATGIFKKLPQLRKINFSNNKITDIEEGAFEGASGVNEILLTSNRLENVQHKMFKGLESLKTLMLRSNRITCVGNDSFIGLSSVRLLSLYDNQITTVAPGAFDTLHSLSTLNLLANPFNCNCYLAWLGEWLRKKRIVTGNPRCQKPYFLKEIPIQDVAIQDFTCDDGNDDNSCSPLSRCPTECTCLDTVVRCSNKGLKVLPKGIPRDVTELYLDGNQFTLVPKELSNYKHLTLIDLSNNRISTLSNQSFSNMTQLLTLILSYNRLRCIPPRTFDGLKSLRLLSLHGNDISVVPEGAFNDLSALSHLAIGANPLYCDCNMQWLSDWVKSEYKEPGIARCAGPGEMADKLLLTTPSKKFTCQGPVDVNILAKCNPCLSNPCKNDGTCNSDPVDFYRCTCPYGFKGQDCDVPIHACISNPCKHGGTCHLKEGEEDGFWCICADGFEGENCEVNVDDCEDNDCENNSTCVDGINNYTCLCPPEYTGELCEEKLDFCAQDLNPCQHDSKCILTPKGFKCDCTPGYVGEHCDIDFDDCQDNKCKNGAHCTDAVNGYTCICPEGYSGLFCEFSPPMVLPRTSPCDNFDCQ
2 | – | 1.2 nM | 0.166 nM | 35 fold | 3680 | Ab96 (antibody, human IgG1, kappa, V domains shown, full-length human IgG) VH: EVQLVQSGAEVKKPGASVKVSCKASGYTFTGYYMHWVRQAPGQGLEWMGWINPKNGDTEFPQKFQGRVTMTRDTSITTAYMDLSRLRSDDTAVYYCARESGDDAFDIWGQGTMVTVSS VL: not shown
3 | – | 1.4 nM | 0.26 nM | 80.5 fold | 7710 | Ab123 (antibody, human IgG1, kappa, V domains shown, full-length human IgG) VH: EVQLVQSGAEVKKPGASVKVSCKASGYTFTGYYMHWVRQAPGQGLEWMGWINPNSGATNFPQKFQGRVTMTRDTSITTAYMDLSRLRSDDTAVYYCARESGDDAFDIWGQGTMVTVSS VL: DIVMTQSPSSLSASVGDRVTITCRASQSISSYLNWYQQKPGKAPKLLIYAASSLQSGVPSRFSGSGSGTDFTLTISSLQPEDFATYYCQQSVGLFFGGGTKVEIKR
